One data set deals with LLC-mGPC1-16. Briefly: In vivo efficacy test on GPC1 ADC, mouse syngenic model using mGPC1 expressing LLC cell strain. The source says:
A mouse model (syngenic mouse) with GPC1 expressed in normal cells that is consistent with GPC1 expressed from cancer cells (i.e., both mouse GPC1) can be prepared by grafting the cell strain expressing mouse GPC1 established in Example 16 into mice. The efficacy and safety can be more accurately evaluated in an experiment using such a mouse model.
FIG. 55 schematically depicts the test in this Example. Specifically, 5.0×10^6 cells of LLC-mGPC1-16 were subcutaneously grafted into female C57BL/6 mice. […] The tumor volume and body weight were measured on day 0, day 4, day 8, day 12, day 16, day 20, and day 24.

The subject of data set [1] is TE4, TE5, TE6, TE8, TE9, TE10, TE11, TE14, TE15, HeLa, ME180. In words: In vitro antitumor effect of unlabeled antibody (CellTiter-Glo). The note with it: 6 days. The class given is cell-based. How it is done:
2000 cells were added to a 96-well plate at 90 μl. The cells were cultured overnight at 37° C. in a 5% CO2 incubator. The next day, 10 μl of an unlabeled primary antibody concentrated […] relative to the final concentration was added to each well, so that the total amount was 100 μl. The cells were cultured for 6 days at 37° C. in a 5% CO2 incubator. The cell viability was measured by using a CellTiter-Glo Luminescent Cell Viability Assay reagent to detect the amount of ATP.

The target of data set [2] is T1, Recombinant human Glypican-1 protein (Homo sapiens, UniProt P35052).
T1 construct: purchased R&D systems 4519-GP-050
T1 sequence (P35052 24-530 limits assumed): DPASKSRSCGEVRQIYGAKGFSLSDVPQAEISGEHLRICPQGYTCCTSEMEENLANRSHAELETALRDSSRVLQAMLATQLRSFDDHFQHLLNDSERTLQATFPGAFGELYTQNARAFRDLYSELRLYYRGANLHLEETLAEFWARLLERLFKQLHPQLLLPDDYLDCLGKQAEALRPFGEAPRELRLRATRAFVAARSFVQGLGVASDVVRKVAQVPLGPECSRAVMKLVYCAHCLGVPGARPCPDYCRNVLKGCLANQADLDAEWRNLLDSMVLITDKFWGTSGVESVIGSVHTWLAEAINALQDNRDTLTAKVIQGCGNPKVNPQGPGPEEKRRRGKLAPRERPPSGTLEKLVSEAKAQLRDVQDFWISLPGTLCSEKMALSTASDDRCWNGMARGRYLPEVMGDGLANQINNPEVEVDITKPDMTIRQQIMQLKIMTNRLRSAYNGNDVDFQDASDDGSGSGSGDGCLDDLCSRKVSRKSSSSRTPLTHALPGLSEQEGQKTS
In words: Antigen affinity analysis by ELISA on immobilized recombinant human GPC1. The class given is binding. The conditions noted are these: for affinity to antigen (ELISA, OD 450 nm): recombinant human GPC1 coated at 2.5 μg/mL. How it is done:
The buffer used in this Example was prepared as follows.
The primary antibodies used in this Example were prepared. GPC1-CL-MMAF and anti-GPC1 monoclonal antibodies (01a033) were diluted stepwise to 100, 20, 4, 0.8, 0.16, 0.032, 0.0064, 0.00128, 0.000256, 0.0000512, and 0.00001024 nM with a dilution buffer. Recombinant human Glypican-1 proteins (CF, model number: 4519-GP-050, volume: 50 μg) were used as the antigen.
Recombinant human GPC1 was diluted to 2.5 μg/mL with PBS (−) and added to 64 wells of Immuno 96 well MicroWell Solid Plate (Maxisorp, Nunc) at 50 μL/well, and the plate was sealed. The plate was shaken, and liquid was confirmed to spread throughout the plate. Next, the following procedure was followed.
*Dilute (1) GPC1-CL-MMAF and (2) anti-GPC1 monoclonal antibody (01a033) with a dilution buffer in a 10-fold dilution series from 100 nM, and add the mixture to the 96-well microplate at 100 μL/well.
*Dilute Anti-Mouse IgG (H+L) Antibody, Human Serum Adsorbed and Peroxidase labeled (KPL, cat. No.: 474-1806) with a dilution buffer (10% Block Ace) to 0.2 μg/ml (prepare a 5000-fold dilution upon use), and add the mixture to the 96-well microplate at 100 μL/well.
*Return TMB (SurModics, TMBW-1000-01) to normal temperature before use, and add the TMB to the 96-well microplate at 100 μL/well.
*Measure absorbance at 450 nm.
*Analyze data with GraphPad Prism 6.04.

The test system of another data set is T3M4 cells. In words: In vitro ADC assay, T3M4 cells. The class given is cell-based, human. The conditions noted are these: T3M4, 144 hours. How it is done: (§1) Preparation of a conjugate of mouse anti-Glypican-1 mAb (01a033), mouse IgG2a (biolegend #400224) as a control, and mc-vc-PAB-MMAF was commissioned to MORADEC. An anticancer agent was conjugated to a cysteine residue via a cleavable linker. The DAR (drug-antibody ratio) was as follows. GPC1-CL-MMAF DAR=3.8, mouse IgG2a-CL-MMAF DAR=4.1.
(§2) (1) The cells were seeded on Thermo Fisher Scientific's 96-well white plate (model no.: 136101) (90 μl cell suspension). RPMI1640+10% FBS+100 U/ml penicillin+100 μg/ml streptomycin was used as the medium. The cells were seeded in 60 wells, and 100 μL of medium was added to 36 wells, and cultured in a 5% CO2 incubator at 37° C. (2) The next day, 10 μL of ADC was added to the cells (total amount: 100 μL). (3) After 144 hours of culture, a CellTiter-Glo™ Luminescence Cell Viability Assay reagent (Promega) was added and mixed at 100 μL/well. (4) Measurements were taken with a plate reader. (5) Analysis was conducted with GraphPad Prism 6.
(§3) The IC50 values were calculated from the following equation (Hossain M M, Hosono-Fukao T, Tang R, Sugaya N, van Kuppevelt T H, Jenniskens G J, Kimata K, Rosen S D, Uchimura K (2010) Direct detection of HSulf-1 and HSulf-2 activities on extracellular heparan sulphate and their inhibition by PI-88. Glycobiology 20(2): 175-186.)
(§4) IC50=10^(Log [A][B]×(50−C)/(D−C)+Log [B]) […]

In a further data set the test system is HeLa cells. Briefly: In vitro ADC assay, HeLa cells. The note with it: 144 hours. The class given is cell-based. How it is done:
as §1, §2, §3, §4

Another data set concerns ME180 cells. Briefly: In vitro ADC assay, ME180 cells. The class given is cell-based. The note with it: ME180, 144 hours. The procedure:
as §1, §2, §3, §4

Data set [3] in a line: Single dose safety test on GPC1 ADC in C57BL/6J mice.
Experimental: A single dose (1 ml) of control PBS, control ADC (50 mg/kg), anti-GPC1 ADC (3 mg/kg), anti-GPC1 ADC (15 mg/kg), and anti-GPC1 ADC (50 mg/kg) was intraperitoneally administered on day 1 to a group of 4 male and 4 female C57BL/6J mice (8W). The mice were dissected after 7 days from administration.
*Blood collection (Blood cell count, biochemical test)
The mark [4] stands for this setting: single ip dose, high dose administration group, not GPC1-ADC specific.

B1: clone 01a033 (antibody)
heavy: QVQLKQSGPELVKPGASVKISCKASGYSFTGYYMHWVKQSPEKSLEWIGEINPSTGDTTYNQKFKAKATLTVDKSSSTAYMQLKSLTSEDSAVYYCAREKRDDGVFAYWGQGTLVTVSSAKTTAPSVYPLAPVCGDTTGSSVTLGCLVKGYFPEPVTLTWNSGSLSSGVHTFPAVLQSDLYTLSSSVTVTSSTWPSQSITCNVAHPASSTKVDKKIEPRGPTIKPCPPCKCPAPNLLGGPSVFIFPPKIKDVLMISLSPIVTCVVVDVSEDDPDVQISWFVNNVEVHTAQTQTHREDYNSTLRVVSALPIQHQDWMSGKEFKCKVNNKDLPAPIERTISKPKGSVRAPQVYVLPPPEEEMTKKQVTLTCMVTDFMPEDIYVEWTNNGKTELNYKNTEPVLDSDGSYFMYSKLRVEKKNWVERNSYSCSVVHEGLHNHHTTKSFSRTPGK
light: DIVMSQSPKSMSMSVGERVALSCKASENVGTYVSWYQQKPEQSPKLLIYGASNRYTGVPDRFTGSGSATDFTLTISSVQAEDLADYYCGQSYSYPLTFGAGTKLELKRADAAPTVSIFPPSSEQLTSGGASVVCFLNNFYPKDINVKWKIDGSERQNGVLNSWTDQDSKDSTYSMSSTLTLTKDEYERHNSYTCEATHKTSTSPIVKSFNRNEC
In the case of B1, the “antitumor effect against tumor expressing mouse GPC-1” value in the data set on LLC-mGPC1-16 (1, 3, 10 mg/kg) was “high antitumor effect”. For the same molecule, the “antitumor effect in vitro” value in data set [1] was “not observed against any cell strain”. Also, the “affinity to antigen (ELISA, OD 450 nm)” value in data set [2] is recorded as “high affinity”.

B2: GPC1 ADC (conjugate)
heavy: QVQLKQSGPELVKPGASVKISCKASGYSFTGYYMHWVKQSPEKSLEWIGEINPSTGDTTYNQKFKAKATLTVDKSSSTAYMQLKSLTSEDSAVYYCAREKRDDGVFAYWGQGTLVTVSSAKTTAPSVYPLAPVCGDTTGSSVTLGCLVKGYFPEPVTLTWNSGSLSSGVHTFPAVLQSDLYTLSSSVTVTSSTWPSQSITCNVAHPASSTKVDKKIEPRGPTIKPCPPCKCPAPNLLGGPSVFIFPPKIKDVLMISLSPIVTCVVVDVSEDDPDVQISWFVNNVEVHTAQTQTHREDYNSTLRVVSALPIQHQDWMSGKEFKCKVNNKDLPAPIERTISKPKGSVRAPQVYVLPPPEEEMTKKQVTLTCMVTDFMPEDIYVEWTNNGKTELNYKNTEPVLDSDGSYFMYSKLRVEKKNWVERNSYSCSVVHEGLHNHHTTKSFSRTPGK
light: DIVMSQSPKSMSMSVGERVALSCKASENVGTYVSWYQQKPEQSPKLLIYGASNRYTGVPDRFTGSGSATDFTLTISSVQAEDLADYYCGQSYSYPLTFGAGTKLELKRADAAPTVSIFPPSSEQLTSGGASVVCFLNNFYPKDINVKWKIDGSERQNGVLNSWTDQDSKDSTYSMSSTLTLTKDEYERHNSYTCEATHKTSTSPIVKSFNRNEC
With B2, the tumor growth entry in the data set on LLC-mGPC1-16 (1 mg/kg iv day 0, 4, 8, 12, compared to the control group) is “significantly delayed”; in the data set with LLC-mGPC1-16 (3 mg/kg iv day 0, 4, 8, 12), “Tumor hardly grew”; in the data set with LLC-mGPC1-16 (10 mg/kg iv day 0, 4, 8, 12) it was “Tumor hardly grew”. Moreover, the body weight entry with LLC-mGPC1-16 (10 mg/kg, tended to recover after 15 days from the start of administration) was “transient decrease in body weight”. The toxicity result in the data set with LLC-mGPC1-16 (syngenic mice, 1, 3, 10 mg/kg) is “Significant toxicity was not observed”. In addition, the “effect of suppressing cell growth” value with T3M4 cells, in the data set on HeLa cells and in the data set on ME180 cells was “exhibits an effect of suppressing cell growth” throughout. Also, the “affinity level of ADC compared with unlabeled antibody” value in data set [2] (01a033 versus 01a033 ADC) is “about the same”. Moreover, the “affinity to antigen (ELISA, OD 450 nm)” value in data set [2] is recorded as “high affinity”. In addition, in data set [3] (single ip dose), the “toxicity from the results of the hematological test” value is given as “Significant toxicity due to ADC administration was not observed”. Further, in data set [3] (single ip dose 50 mg/kg), the “anemia (hemoglobin)” value is reported as “Mild anemia”. In data set [3] (single ip dose 3, 15, 50 mg/kg), the amylase entry is recorded as “Specific abnormality was not observed”. In addition, the platelet count entry in data set [3] (single ip dose 3, 15, 50 mg/kg) is “Abnormal platelet count specific to each group was not observed”. Besides, the “change in the body weight” value in data set [3] (single ip dose, groups other than 50 mg/kg (3, 15 mg/kg), 7 days) is “Significant change in the body weight was not observed”. Besides, the “liver function (ALT)” value in data set [3] (setting [4]) was “An abnormality in the liver function was found”. Also, in data set [3] (setting [4]), the white blood cells entry was “increase in the while blood cells was observed”.

These data come from US20200308299A1, “ANTI-GPC-1 ANTIBODY” (National University Corporation Kochi University, priority 2017, published 2020).
